Experiments:
[1] = biological target: CA IX expressed by cells (C-33a_CA IX transfectants; hypoxic BT-20, JIMT-1, 8-MG-BA and 42-MG-BA cells) (human, UniProt Q16790 38-459); assay: cell-based or functional assay
recombinant human CA IX [2] = biological target: T1, recombinant human CA IX (human, UniProt Q16790 38-414); assay: SPR (Biacore T200), antibody captured on CM5 chip, rh CA IX in flow, 25 C
Protocol: (§1) In order to determinate the antigen-binding affinity of humanized variants, measurements of affinity constant (KD) for antibodies binding to CA IX were performed by SPR using a Biacore 2000 (T200 in case of CA9hu-2) instrument (GE Healthcare, Piscataway, NJ USA). Each humanized antibody variant was captured on the CM5 sensor chip and recombinant human CA IX (rh CA IX; 42 kDa; R&D Systems, Inc., Minneapolis MN, USA) protein as an antigen was added to the buffer flowing over the chip. The setting details of quantitative interaction analysis between humanized antibodies and rh CA IX were as follows: flow rate 30 μl/min; analysis temperature 25° C.; analysis buffer (10mM HEPES pH 7.4, 150 mM NaCl, […], 0.05% Tween 20). Results from SPR analysis are expressed as the equilibrium dissociation constant (KD) (Table 7).

recombinant human CA IX [3] = biological target: T1, recombinant human CA IX; assay: SPR (Biacore 2000), antibody captured on CM5 chip, rh CA IX in flow, 25 C
Protocol: as §1

ADCC reporter luminescence, C-33a_CA IX against C-33a_neo cells [1] [times]	Kd (recombinant human CA IX [2]) [nM]	Kd (recombinant human CA IX [3]) [nM]	Binder
2	57.2	–	CA9hu-2_HC5LC3 (antibody, V domains shown, Humanized from murine IV/18; also called HC5LC3 (CA9hu-2)) VH: EVQLVESGGGLVQPGGSLKLSCAASGFTFNTNAMHWVRQASGKGLEWVGRIRSKSNNYTTYYADSVKDRFTISRDDSKNTAYLQMNSLKTEDTAVYYCVCGSWFAYWGQGTTVTVSS VL: DIQMTQSPDSLAVSLGERATINCKSSQSLLNSSNQKNYLAWYQQKPGQPPKLLIYFTSTRQSGVPDRFSGSGSGTDFTLTISSLQAEDVAVYFCQQHYSIPLTFGQGTKVEIK
2	32.7	–	CA9hu-2_HC4LC2 (antibody, V domains shown, Humanized from murine IV/18; also called HC4LC2 (CA9hu-2)) VH: EVQLVESGGGVVQPGRSLRLSCAASGFTFNTNAMHWVRQAPGKGLEWVARIRSKSNNYTTYYADSVKDRFTISRDNSKNTLYLQMNSLRAEDTAVYYCVCGSWFAYWGQGTLVTVSS VL: DIVMTQSPDSLAVSLGERATINCKSSQSLLNSSNQKNYLAWFQQKPGQPPNLVIYFTSTRQSGVPDRFSGSGSGTDFTLTINSLQAEDVAVYFCQQHYSIPLTFGQGTQVEIK
2	40.1	–	CA9hu-2_HC3LC2 (antibody, V domains shown, Humanized from murine IV/18; also called HC3LC2 (CA9hu-2)) VH: QVQLVESGGGVVQPGGSLRLSCAASGFTFNTNAMHWVRQAPGRGLEWVARIRSKSNNYTTYYADSVKDRFTISRDNSKNTLYLQVNSLRAEDTAVYYCVCGSWFAYWGQGTLVTVSS VL: DIVMTQSPDSLAVSLGERATINCKSSQSLLNSSNQKNYLAWFQQKPGQPPNLVIYFTSTRQSGVPDRFSGSGSGTDFTLTINSLQAEDVAVYFCQQHYSIPLTFGQGTQVEIK
2	62.3	–	CA9hu-2_HC3LC3 (antibody, V domains shown, Humanized from murine IV/18; also called HC3LC3 (CA9hu-2)) VH: QVQLVESGGGVVQPGGSLRLSCAASGFTFNTNAMHWVRQAPGRGLEWVARIRSKSNNYTTYYADSVKDRFTISRDNSKNTLYLQVNSLRAEDTAVYYCVCGSWFAYWGQGTLVTVSS VL: DIQMTQSPDSLAVSLGERATINCKSSQSLLNSSNQKNYLAWYQQKPGQPPKLLIYFTSTRQSGVPDRFSGSGSGTDFTLTISSLQAEDVAVYFCQQHYSIPLTFGQGTKVEIK
2	37.4	–	CA9hu-2_HC3LC1 (antibody, V domains shown, Humanized from murine IV/18; also called HC3LC1 (CA9hu-2)) VH: QVQLVESGGGVVQPGGSLRLSCAASGFTFNTNAMHWVRQAPGRGLEWVARIRSKSNNYTTYYADSVKDRFTISRDNSKNTLYLQVNSLRAEDTAVYYCVCGSWFAYWGQGTLVTVSS VL: DVVMTQSPDSLAVSLGERVTINCKSSQSLLNSSNQKNYLAWYQQKPGQSPKLLIYFTSTRQSGVPDRFSGSGSGTDFTLTISSLQAEDVAVYYCQQHYSIPLTFGQGTKLEIK
2	73.1	–	CA9hu-2_HC3LC4 (antibody, V domains shown, Humanized from murine IV/18; also called HC3LC4 (CA9hu-2)) VH: QVQLVESGGGVVQPGGSLRLSCAASGFTFNTNAMHWVRQAPGRGLEWVARIRSKSNNYTTYYADSVKDRFTISRDNSKNTLYLQVNSLRAEDTAVYYCVCGSWFAYWGQGTLVTVSS VL: DIVMTQSPDSLAVSLGERATINCKSSQSLLNSSNQKNYLAWFQQKPGQPPKVLIYFTSTRQSGVPDRFTGSGSGTDFTLTISSLQAEDVAVYYCQQHYSIPLTFGQGTKLEIK
2	65.1	–	CA9hu-2_HC5LC5 (antibody, V domains shown, Humanized from murine IV/18; also called HC5LC5 (CA9hu-2)) VH: EVQLVESGGGLVQPGGSLKLSCAASGFTFNTNAMHWVRQASGKGLEWVGRIRSKSNNYTTYYADSVKDRFTISRDDSKNTAYLQMNSLKTEDTAVYYCVCGSWFAYWGQGTTVTVSS VL: DIVMTQSPDSLAVSLGERATINCKSSQSLLNSSNQKNYLAWYQQKPGQPPKLLIYFTSTRQSGVPDRFSGSGSGTDFTLTISSLQAEDVAVYYCQQHYSIPLTFGQGTKLEIK
2	47.3	–	CA9hu-2_HC5LC4 (antibody, V domains shown, Humanized from murine IV/18; also called HC5LC4 (CA9hu-2)) VH: EVQLVESGGGLVQPGGSLKLSCAASGFTFNTNAMHWVRQASGKGLEWVGRIRSKSNNYTTYYADSVKDRFTISRDDSKNTAYLQMNSLKTEDTAVYYCVCGSWFAYWGQGTTVTVSS VL: DIVMTQSPDSLAVSLGERATINCKSSQSLLNSSNQKNYLAWFQQKPGQPPKVLIYFTSTRQSGVPDRFTGSGSGTDFTLTISSLQAEDVAVYYCQQHYSIPLTFGQGTKLEIK
–	–	56	CA9hu-1_HC5LC3 (antibody, V domains shown, Humanized from murine VII/20; also called HC5LC3 (CA9hu-1)) VH: EVQLVESGGGLVQPGGSLRLSCAASGFTFTDYYMHWVRQAPGKGLEWVGFIRNKASGYTPQYSASVKGRFTISRDDSKNSLYLQMNSLKTEDTAVYYCVRGGHAGSNYWYFDVWGQGTMVTVSS VL: DIQMTQSPSSLSASVGDRVTITCHVSQNINVWLSWYQQKPGEAPKLLIYQASNLHTGVPSRFSGSGSGTDFTLTISSLQPEDFATYYCQQGQSYPFTFGQGTKLEIK
–	–	60	CA9hu-1_HC2LC1 (antibody, V domains shown, Humanized from murine VII/20; also called HC2LC1 (CA9hu-1)) VH: EVRLVESGGGLVQPGGSLRLSCAASGFTFTDYYMHWVRQAPGKGLEWLGFIRNKASGYTPQYSASVKGRFTISRDDSTNSLYLQMNSLKTEDTAIYYCVRGGHAGSNYWYFDVWGQGTLVTVSS VL: DIQMTQSPSSLSASVGDRVTITCHVSQNINVWLSWYQQKPGKAPNLLIYQASNLHTGVPSRFSGSGSGTHFTLTISSLQPEDIATYYCQQGQSYPFTFGGGTKVEIK
–	–	96	CA9hu-1_HC1LC5 (antibody, V domains shown, Humanized from murine VII/20; also called HC1LC5 (CA9hu-1)) VH: EVQLVESGGGLVQPGGSLRLSCAASGFTFTDYYMHWVRQAPGKGLEWVAFIRNKASGYTPQYSASVKGRFTISRDDSKNSLYLQMNSLKIEDTAVYYCVRGGHAGSNYWYFDVWGQGTTVTVSS VL: DIQMTQSPSSLSASVGDRVTITCHVSQNINVWLSWYQQKPGKAPKLLIYQASNLHTGVPSRFSGSGSGTDFTFTISSLQPEDIATYYCQQGQSYPFTFGQGTKLEIK
–	–	51	CA9hu-1_HC2LC3 (antibody, V domains shown, Humanized from murine VII/20; also called HC2LC3 (CA9hu-1)) VH: EVRLVESGGGLVQPGGSLRLSCAASGFTFTDYYMHWVRQAPGKGLEWLGFIRNKASGYTPQYSASVKGRFTISRDDSTNSLYLQMNSLKTEDTAIYYCVRGGHAGSNYWYFDVWGQGTLVTVSS VL: DIQMTQSPSSLSASVGDRVTITCHVSQNINVWLSWYQQKPGEAPKLLIYQASNLHTGVPSRFSGSGSGTDFTLTISSLQPEDFATYYCQQGQSYPFTFGQGTKLEIK
–	–	60	CA9hu-1_HC2LC4 (antibody, V domains shown, Humanized from murine VII/20; also called HC2LC4 (CA9hu-1)) VH: EVRLVESGGGLVQPGGSLRLSCAASGFTFTDYYMHWVRQAPGKGLEWLGFIRNKASGYTPQYSASVKGRFTISRDDSTNSLYLQMNSLKTEDTAIYYCVRGGHAGSNYWYFDVWGQGTLVTVSS VL: DIQMTQSPSSLSASVGDRVTINCHVSQNINVWLSWYQQKPGEAPKLLIYQASNLHTGVPSRFSGSGSGTGFTLTIRSLQPEDYATYYCQQGQSYPFTFGQGTKLEIK
–	–	97	CA9hu-1_HC1LC1 (antibody, V domains shown, Humanized from murine VII/20; also called HC1LC1 (CA9hu-1)) VH: EVQLVESGGGLVQPGGSLRLSCAASGFTFTDYYMHWVRQAPGKGLEWVAFIRNKASGYTPQYSASVKGRFTISRDDSKNSLYLQMNSLKIEDTAVYYCVRGGHAGSNYWYFDVWGQGTTVTVSS VL: DIQMTQSPSSLSASVGDRVTITCHVSQNINVWLSWYQQKPGKAPNLLIYQASNLHTGVPSRFSGSGSGTHFTLTISSLQPEDIATYYCQQGQSYPFTFGGGTKVEIK
–	–	53	CA9hu-1_HC2LC2 (antibody, V domains shown, Humanized from murine VII/20; also called HC2LC2 (CA9hu-1)) VH: EVRLVESGGGLVQPGGSLRLSCAASGFTFTDYYMHWVRQAPGKGLEWLGFIRNKASGYTPQYSASVKGRFTISRDDSTNSLYLQMNSLKTEDTAIYYCVRGGHAGSNYWYFDVWGQGTLVTVSS VL: DIQMTQSPSTLSASVGDRVTITCHVSQNINVWLSWYQQKPGNAPKLLIYQASNLHTGVPSRFSGSGSGTEFTLTIGSLQPDDFVTYYCQQGQSYPFTFGQGTKVEIK
–	–	100	CA9hu-1_HC1LC4 (antibody, V domains shown, Humanized from murine VII/20; also called HC1LC4 (CA9hu-1)) VH: EVQLVESGGGLVQPGGSLRLSCAASGFTFTDYYMHWVRQAPGKGLEWVAFIRNKASGYTPQYSASVKGRFTISRDDSKNSLYLQMNSLKIEDTAVYYCVRGGHAGSNYWYFDVWGQGTTVTVSS VL: DIQMTQSPSSLSASVGDRVTINCHVSQNINVWLSWYQQKPGEAPKLLIYQASNLHTGVPSRFSGSGSGTGFTLTIRSLQPEDYATYYCQQGQSYPFTFGQGTKLEIK
–	–	56	CA9hu-1_HC2LC5 (antibody, V domains shown, Humanized from murine VII/20; also called HC2LC5 (CA9hu-1)) VH: EVRLVESGGGLVQPGGSLRLSCAASGFTFTDYYMHWVRQAPGKGLEWLGFIRNKASGYTPQYSASVKGRFTISRDDSTNSLYLQMNSLKTEDTAIYYCVRGGHAGSNYWYFDVWGQGTLVTVSS VL: DIQMTQSPSSLSASVGDRVTITCHVSQNINVWLSWYQQKPGKAPKLLIYQASNLHTGVPSRFSGSGSGTDFTFTISSLQPEDIATYYCQQGQSYPFTFGQGTKLEIK
–	–	96	CA9hu-1_HC1LC3 (antibody, V domains shown, Humanized from murine VII/20; also called HC1LC3 (CA9hu-1)) VH: EVQLVESGGGLVQPGGSLRLSCAASGFTFTDYYMHWVRQAPGKGLEWVAFIRNKASGYTPQYSASVKGRFTISRDDSKNSLYLQMNSLKIEDTAVYYCVRGGHAGSNYWYFDVWGQGTTVTVSS VL: DIQMTQSPSSLSASVGDRVTITCHVSQNINVWLSWYQQKPGEAPKLLIYQASNLHTGVPSRFSGSGSGTDFTLTISSLQPEDFATYYCQQGQSYPFTFGQGTKLEIK
–	–	80	CA9hu-1_HC1LC2 (antibody, V domains shown, Humanized from murine VII/20; also called HC1LC2 (CA9hu-1)) VH: EVQLVESGGGLVQPGGSLRLSCAASGFTFTDYYMHWVRQAPGKGLEWVAFIRNKASGYTPQYSASVKGRFTISRDDSKNSLYLQMNSLKIEDTAVYYCVRGGHAGSNYWYFDVWGQGTTVTVSS VL: DIQMTQSPSTLSASVGDRVTITCHVSQNINVWLSWYQQKPGNAPKLLIYQASNLHTGVPSRFSGSGSGTEFTLTIGSLQPDDFVTYYCQQGQSYPFTFGQGTKVEIK
